To fix the notation:
B1: SPACA3 (parent)
chain: FTSGFNAAALDYEADGSTNNGIFQ
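Further: lentivirally expressed fusions sorted by FACS into six bins by GFP to DsRed ratio, PSI derived from sequencing read proportions per bin multiplied by bin number.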

The variants in this series derive from B1. In words: protein stability index of a GFP-peptide fusion (GPS, HEK-293T) (PSI 1-6); higher = more stable. Particulars: c terminus: a fixed tail appended.
In the case of FTSGYNAAALDYEADGSTNNGIFQ [F5Y], the protein stability index was determined as 2.18. In the case of FTSGGNAAALDYEADGSTNNGIFQ [F5G] it was 3.63; in that of FTSGHNAAALDYEADGSTNNGIFQ [F5H], 3.55; in that of FTSGKNAAALDYEADGSTNNGIFQ [F5K], 3.8.

In the case of FTSGRNAAALDYEADGSTNNGIFQ [F5R], the protein stability index is 3.25. In the case of FTSGMNAAALDYEADGSTNNGIFQ [F5M] it was 3.25; in that of FTSGTNAAALDYEADGSTNNGIFQ [F5T], 4.06. FTSGINAAALDYEADGSTNNGIFQ [F5I]: the protein stability index worked out at 3.14.

As for FTSGANAAALDYEADGSTNNGIFQ [F5A], the protein stability index was determined as 4.07. Turning to FTSGFNAAALDYEADGWTNNGIFQ [S17W], the protein stability index was found to be 2.1. Then FTSGFNAAALDYEADGMTNNGIFQ [S17M], with 1.48; and FTSGFNAAALDYEADGKTNNGIFQ [S17K], with 1.87; and FTSGFNAAALDYEADGVTNNGIFQ [S17V], with 2.06. Then FTSGFNAAALDYEADGCTNNGIFQ [S17C], with 1.94; and FTSGFNAAAIDYEADGSTNNGIFQ [L10I], with 1.98. In the case of FTSGFNAAASDYEADGSTNNGIFQ [L10S] it was 1.53; in that of FTSGFNAAAADYEADGSTNNGIFQ [L10A], 1.62. In the case of FTSGFNAAAPDYEADGSTNNGIFQ [L10P], the protein stability index was 2.25. Then FTSGFNAAACDYEADGSTNNGIFQ [L10C], with 1.92; and FTSGFNAAAYDYEADGSTNNGIFQ [L10Y], with 1.64; and FTSGFNAAAGDYEADGSTNNGIFQ [L10G], with 2.38. Then FTSGFNAAARDYEADGSTNNGIFQ [L10R], with 1.78. Then FTSGFNAAAFDYEADGSTNNGIFQ [L10F], with 2.3. Consider FTSGFNAAATDYEADGSTNNGIFQ [L10T], for which the protein stability index was 2.01. In the case of FTSGFNAAALDYEAAGSTNNGIFQ [D15A] it was 2.11; in that of FTSGFNAAALDYEAKGSTNNGIFQ [D15K], 1.65; in that of FTSGFNAAALDYEAFGSTNNGIFQ [D15F], 2.42. In the case of FTSGFNAAALDYEAPGSTNNGIFQ [D15P] it was 1.64; in that of FTSGFNAAALDYEAQGSTNNGIFQ [D15Q], 1.66. For FTSGFNAAALDYEATGSTNNGIFQ [D15T], the protein stability index stood at 1.98. FTSGFNAAALDYEAIGSTNNGIFQ [D15I]: the protein stability index turned out to be 2.12. Take FTSGFNAAALDYEAVGSTNNGIFQ [D15V]: the protein stability index came to 1.43. In the case of FTSGFNAAALDYEAYGSTNNGIFQ [D15Y] it was 2.47. In the case of FTSGFNAAALDYEACGSTNNGIFQ [D15C] it was 2.27; in that of FTSGFNAAALDYEAGGSTNNGIFQ [D15G], 1.68.

With FTSGFNAAALDYEARGSTNNGIFQ [D15R], the protein stability index worked out at 1.96. In the case of FTSGFNCAALDYEADGSTNNGIFQ [A7C] it was 2.08; in that of FTSGFNIAALDYEADGSTNNGIFQ [A7I], 2.13; in that of FTSGFNTAALDYEADGSTNNGIFQ [A7T], 1.83. With FTSGFNDAALDYEADGSTNNGIFQ [A7D], the protein stability index worked out at 2.62. In the case of FTSGFNHAALDYEADGSTNNGIFQ [A7H] it was 2.2; in that of FTSGFNKAALDYEADGSTNNGIFQ [A7K], 1.83; in that of FTSGFNAAALDYEADGSTNNGILQ [F23L], 2.08. Regarding FTSGFNAAALDYEADGSTNNGINQ [F23N], the protein stability index was found to be 2.4. Then FTSGFNAAALDYEADGSTNNGIWQ [F23W], with 1.64; and FTSGFNAAALDYEADGSTNNGIHQ [F23H], with 2.42; and FTSGFNAAALDYEADGSTNNGIGQ [F23G], with 2.54. For FTSGFNAAALDYEADGSTNNGIKQ [F23K], the protein stability index is 2.48. Then FTSGFNAAALDYEADGSTNNGIAQ [F23A], with 2.1; and FTSGFNAAALDYEADGSTNYGIFQ [N20Y], with 2.19; and FTSGFNAAALDYEADGSTNLGIFQ [N20L], with 2.04.

Take FTSGFNAAALDYEADGSTNKGIFQ [N20K]: the protein stability index was determined as 1.98. Then FTSGFNAAALDYEADGSTNGGIFQ [N20G], with 1.96.

With FTSGFNAAALDYEADGSTNDGIFQ [N20D], the protein stability index was determined as 2.51. In the case of FTSGFNAAALDYEADGSTNVGIFQ [N20V] it was 2; in that of FTSGFNAAALDYEADGSTNCGIFQ [N20C], 2.33; in that of FTSGFNAAALDYEADGSNNNGIFQ [T18N], 1.7. In the case of FTSGFNAAALDYEADGSMNNGIFQ [T18M] it was 1.95; in that of FTSGFNAAALDYEADGSDNNGIFQ [T18D], 2.06. FTSGFNAAALDYEADGSINNGIFQ [T18I]: the protein stability index stood at 2.14.

In the case of FTSGFNAAALDYEADGSENNGIFQ [T18E], the protein stability index was found to be 2.27.

In the case of FTSGFNAAALDYEADGSPNNGIFQ [T18P], the protein stability index was determined as 1.83. In the case of FTSKFNAAALDYEADGSTNNGIFQ [G4K] it was 1.98; in that of FTSCFNAAALDYEADGSTNNGIFQ [G4C], 1.94; in that of FTSLFNAAALDYEADGSTNNGIFQ [G4L], 1.7.

For FTSHFNAAALDYEADGSTNNGIFQ [G4H], the protein stability index was determined as 2.59. Then FTSVFNAAALDYEADGSTNNGIFQ [G4V], with 2.21; and FTSEFNAAALDYEADGSTNNGIFQ [G4E], with 2.22. Then FTSPFNAAALDYEADGSTNNGIFQ [G4P], with 2.78; and FTSAFNAAALDYEADGSTNNGIFQ [G4A], with 1.82; and FTSRFNAAALDYEADGSTNNGIFQ [G4R], with 1.87. Then FTSGFNAAALDYEMDGSTNNGIFQ [A14M], with 2.02; and FTSGFNAAALDYEFDGSTNNGIFQ [A14F], with 2.11. Take FTSGFNAAALDYETDGSTNNGIFQ [A14T]: the protein stability index stood at 1.96. FTSGFNAAALDYEHDGSTNNGIFQ [A14H]: the protein stability index was 2.09. Regarding FTSGFNAAALDYEVDGSTNNGIFQ [A14V], the protein stability index is 2.17. Then FTSGFNAAALDYELDGSTNNGIFQ [A14L], with 1.8.

FTSGFNAAFLDYEADGSTNNGIFQ [A9F]: the protein stability index was 2.92.

Consider FTSGFNAANLDYEADGSTNNGIFQ [A9N], for which the protein stability index turned out to be 1.82. In the case of FTSGFNAAGLDYEADGSTNNGIFQ [A9G] it was 2.06; in that of FTSGFNAAELDYEADGSTNNGIFQ [A9E], 2.46; in that of FTSGFNAADLDYEADGSTNNGIFQ [A9D], 2.42.

For the variant FTSGFNAAYLDYEADGSTNNGIFQ [A9Y], the protein stability index was 2.03. In the case of FTSGFNAAQLDYEADGSTNNGIFQ [A9Q] it was 2.97; in that of FTSGFNAAHLDYEADGSTNNGIFQ [A9H], 2.18; in that of FTSGFNAAALDTEADGSTNNGIFQ [Y12T], 2.41. FTSGFNAAALDLEADGSTNNGIFQ [Y12L]: the protein stability index was 1.74. Then FTSGFNAAALDNEADGSTNNGIFQ [Y12N], with 2.2. For the variant FTSGFNAAALDIEADGSTNNGIFQ [Y12I], the protein stability index amounted to 2.05. In the case of FTSGFNAAALDVEADGSTNNGIFQ [Y12V] it was 2.34. Then FTSGFNAAALDCEADGSTNNGIFQ [Y12C], with 2.28; and FTSGFNAAALDFEADGSTNNGIFQ [Y12F], with 1.9.

On to FTSGFNAAALDQEADGSTNNGIFQ [Y12Q], for which the protein stability index stood at 2.25.

For FTSGFNAAALDMEADGSTNNGIFQ [Y12M], the protein stability index turned out to be 1.83.

The record behind these values is the supplement of paper PMC10567573.
